This note sets out measurements from patent US20060275803A1, “Rat and mouse members of the CRISP family of genes” (Wyeth, priority 2005, published 2006).

The target of the assay is T1, rCRISPA (rCRISP1) (Rattus norvegicus, UniProt P12020).
T1 construct: Native rCRISPA (rCRISP1) protein, purified with DANA present; from tissue; host or cells: rat epididymis
T1 sequence (P12020 20-246): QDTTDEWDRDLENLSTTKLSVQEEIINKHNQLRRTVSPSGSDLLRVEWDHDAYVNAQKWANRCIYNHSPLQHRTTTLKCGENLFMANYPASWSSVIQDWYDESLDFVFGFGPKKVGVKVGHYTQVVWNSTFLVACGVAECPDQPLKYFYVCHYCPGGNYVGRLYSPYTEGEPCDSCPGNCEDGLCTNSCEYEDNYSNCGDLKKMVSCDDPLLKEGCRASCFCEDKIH
Nature of the assay: Protease activity screen: cleavage of substrate peptides by native rCRISPA (+DANA protocol), measured by fluorescence. The assay is classed as biochemical. To be noted: 5 μM substrate peptide, 1 μg enzyme, 100 mM NaCl, 25 mM Tris-Cl, pH 7.5; fluorescence at ten minute intervals for 130 minutes; FIG. 13. Here is the method: FIG. 13 is a graph showing rCRISPA (rCRISP1) protease activity (assay conditions: 5 μM substrate peptide, 1 μg enzyme, 100 mM NaCl, 25 mM Tris-Cl, pH 7.5). A. Cleaved peptides A04 (RGARARLG), N08 (RKRRAPLA), N12 (AKRAASQI), N17 (RKRRAVLT), B22 (APQRFGKK), B17 (RQRYGKRS), B23 (RVKRYRQS), H03 (RNKRAVQG). B. Cleaved peptides B20 (PQRFGRNT), C16 (RVLGLKAH), J21 (LRNRAQSG), H07 (RVKRQVRS), H11 (RRLLRAIP), N05 (RARRELAP), H01 (RKKRSTKK), O22 (GGVRGPRV), O16 (AATRRQAV), O23 (KNVAMQKG), G24 (RRKRSTRE), A09 (RMRRYADA), M02 (EKQRIIGG), H17 (NGLRADPM). C. Uncleaved peptides L16 (KTPRWGG), N10 (FYRADQPR), B11 (AAGVAPLS), J03 (PQLHSTGG), C01 (GPQGLLGA), K11 (VIPRSGGS), M07 (GLQRALEI), A01 (WQGGRRKF), H02 (RAKRSVHF), A10 (SAARPAPP), M16 (RSRREADL), A05 (SYRKVLGQ), M18 (VHRDMAAR), C23 (RDAQAHPG), M09 (GSQHIRAE), E19 (RLGREGVQ), D06 (ALAEAMKK).
Native rCRISPA (rCRISP1) protein, purified with DANA present (see Example 4), was screened for the ability to cleave 360 unique peptides using the commercially available peptide substrate set (catalog # PrSS-360-75, JPT Peptide Technologies, Springfield, Va.). […] The substrate peptides cleaved by rCRISPA in this assay are represented by blue and green traces noted in FIG. 13. Peptides that were not cleaved by rCRISPA are also noted in FIG. 13.
On to “RKRRAPLA [N08, substrate peptide of the commercial peptide substrate set PrSS-360-75, JPT Peptide Technologies]”, for which the “cleavage of substrate peptide by rCRISPA (rCRISP1) protease activity” value (“cleavage of substrate peptide by rCRISPA” below) is reported as “Cleaved”.

On to “RKKRSTKK [H01, substrate peptide of the commercial peptide substrate set PrSS-360-75, JPT Peptide Technologies]”, for which the “cleavage of substrate peptide by rCRISPA” value is “Cleaved”.

Turning to “RRLLRAIP [H11, substrate peptide of the commercial peptide substrate set PrSS-360-75, JPT Peptide Technologies]”, the “cleavage of substrate peptide by rCRISPA” value is recorded as “Cleaved”.

Consider “RARRELAP [N05, substrate peptide of the commercial peptide substrate set PrSS-360-75, JPT Peptide Technologies]”, for which the “cleavage of substrate peptide by rCRISPA” value is “Cleaved”.

For “EKQRIIGG [M02, substrate peptide of the commercial peptide substrate set PrSS-360-75, JPT Peptide Technologies]”, the “cleavage of substrate peptide by rCRISPA” value is on record as “Cleaved”.

On to “RDAQAHPG [C23, substrate peptide of the commercial peptide substrate set PrSS-360-75, JPT Peptide Technologies]”, for which the “cleavage of substrate peptide by rCRISPA” value is on record as “Uncleaved”.

Regarding “GLQRALEI [M07, substrate peptide of the commercial peptide substrate set PrSS-360-75, JPT Peptide Technologies]”, the “cleavage of substrate peptide by rCRISPA” value is “Uncleaved”.

“WQGGRRKF [A01, substrate peptide of the commercial peptide substrate set PrSS-360-75, JPT Peptide Technologies]”: the “cleavage of substrate peptide by rCRISPA” value is reported as “Uncleaved”.
